Results as given in the supplement of paper PMC9170038.

System: K4 kissing-loop RNA reporter
Test: apparent KD of K4 kissing-loop reporter; higher = weaker reporter binding
Conditions: Eterna round: R107
Protocol: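 RNA-MaP round R107: designed RNA switches with theophylline, tryptophan, arginine or FMN aptamers are transcribed on-chip within common flanks. They are titrated with a labelled K4 kissing-loop RNA reporter in RNA-MaP buffer (100 mM Tris pH 7.5, 80 mM KCl, 4 mM MgCl2), without ligand or with the indicated ligand. Median apparent KD per design.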

[1] = input ligand: theophylline 20 uM
[2] = input ligand: tryptophan 2.4 mM
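Further: bound reporter read as fluorescence of individual clusters on recovered sequencing chips by microscopy, with normalized cluster intensities fitted with a binding model.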

| Sequence | apparent KD of K4 kissing-loop reporter (input ligand: FMN 200 uM) [nM] | apparent KD of K4 kissing-loop reporter (input ligand: arginine 13.2 mM) [nM] | apparent KD of K4 kissing-loop reporter (input ligand: none) [nM] | apparent KD of K4 kissing-loop reporter [1] [nM] | apparent KD of K4 kissing-loop reporter [2] [nM] |
| --- | --- | --- | --- | --- | --- |
| AGAGUCGGCUGUGAUACCAGUCGUAUUACAACAUGUCGCAGUGAUGUUGCGAGAUAGGAUGACCCUUGGCAGCACUCAGUACGAU [Same State Theophylline B GF 8] | 347 | 277 | 421 | 503 | 323 |
| AGAGUUAAUUAGUCUUUUUUCACAUUAAGUCAGGAUAUCGUAUUUUCGAGAAGGGACACAUGCUAGUGAUGUUAGCUAUUUCUCA [JR_Nu3_ExcFMNA_Sub020] | 60.1 | 103 | 67.5 | 114 | 59.6 |
| AGAGUUAUGCGAGGAUAUGCAGUUAGUACUCAAAGAGUACUAACGCAGAGUGAUGUUCUGUGAAAUGCAGAAGGUGCAUAACUCA [Omei KL FMN B SS B v5] | 157 | 316 | 330 | 316 | 289 |
| AGCAUUUUCAGAAGGAGCGUGAAUUAUUCAUAAUUAUAUUAUACGAGUGAUGUUCGUAUUUCACAGGUAGGUCGCUGAUAUAGCA [JR_SSArginiB_Sub002] | 51.4 | 78.3 | 50.1 | 81.6 | 46.6 |
| AGCCGAAAGGCGAGUGCUGUCACUCCGGAAGGAGCGCUCGAAAGAGCAGGUAGGUCGCCGGAGUGAUGUUCCGGUGCAGCACUCA [Omei KL Arginine A Exc B v5] | 654 | 390 | 1250 | 1210 | 1100 |
| AGCCGUCUAAGUGAUGUUUAGGCAUGUCAGCGAGGACCGGUACGGCCGCCACUCGUGCUAUUGAGAUUUCGGGUAGCCCACGUAG [theeternabot_sameState_KL_Trp_A_20] | 288 | 187 | 271 | 125 | 163 |
| AGCGAGUGAUGUUCGCUGAUCAUGAGAAGUUAGGAUAUAUACUUGCAUAGAAGGAACUAUUUCAUGACAUUAGAGGCAGUAGUUC [FMN A SS t7] | 159 | 160 | 158 | 152 | 125 |
| AGCGGCCAGUCGGCCGCCACUCCAGGCAGUGAUGUUGCGAAGUUUCUACUAGAGUGAUGUUCUAAGAGGACCGGGACUGACGUAA [Exclusion Tryptophan B Gf 9] | 217 | 218 | 253 | 291 | 199 |
| AGCUAGUACGCAGGAUAUUGAACAUCAUUUAGUGAGAUCGAGUGAUGUUCGAUCACGACUUCAGUUCGAGAAGGGCGUACUAGCA [#02 K4 FMN B Same State] | 160 | 663 | 931 | 1070 | 861 |
| AGCUAGUGAAACUAGUUUAAACUAGGUGAAGGAGCGAUCGAAAGAUCAGGUAGGUCGCACCUAACUGAGUGAUGUUCAGGAAAUA [KL-SSArg-A4] | 67.1 | 54.3 | 70.7 | 66.7 | 61.3 |
| AGGAGCGUGCGAUGAAAAUCGCACGCUCCUCGAGGACCGGUACGGCCGCCACUCGCUCGCGCCGAGUGAUGUUCGGCCGGCGAAC [#2 Same State - Tryptophan A Attempt #8 (HarryS)] | 194 | 180 | 234 | 269 | 966 |
| AGGCACGAGCAAGGAUAUCGAGUAGAGUGAUGUUCUGCCUGGGUUGGCCCGAAAGGGCCUUCCCAGCGAGAAGGUGCUCGUGCCU [#2 Same State - FMN A Attempt #9 (HarryS)] | 222 | 588 | 766 | 492 | 863 |
| AGGCACGAGCAAGGAUAUUGAGUAGAGUGAUGUUCUGCCUGGGUUGGCUCGUAAGAGCCUUCUCAGCGAGAAGGUGCUCGUGCCU [#2 Same State - FMN A Attempt #23 (HarryS)] | 254 | 432 | 679 | 552 | 636 |
| AGGUACUACGGAAGGAGCGCACCAGUGAUGUUGGUGUGUGACCGUGACAUGGCAGUCAAGGUGCAGGUAGGUCGCCGUGGCCUUU [Anatartibe] | 143 | 113 | 146 | 122 | 115 |
| AGGUGCUACGGAAGGAGCGCACCAGUGAUGUUGGUGUGUGACCGUGACAUGGCAGUCAAGGUGCAGGUAGGUCGCCGUGGCCUUU [Geeseris] | 137 | 108 | 131 | 138 | 136 |
| AGGUGGGACGUAGGAUAUCCCUAAUGAUUUACUUCCUGGUUGCUACGCUUCCAGUGAUGUUGGAAGGGAGAAGGACGGGCGAGUU [Riatbive] | 365 | 217 | 213 | 217 | 222 |
| AGGUUUUGAUUAGGAUAUGCACUGACGACGAGAAUAUAGUGAUGUUAUAUAAUACGAAUUAGUAGAGUAGAAGGGAUUGAGGUUU [SSFMNB.X] | 422 | 307 | 348 | 390 | 286 |
| AGGUUUUGCGGAGGAUAUGCACUGAGGAGGAGAAUAUAGUGAUGUUAUAUAAGAGGAAGGAGAAGAGUAGAAGGCCGUGAGGUUU [SSFMNB.N] | 144 | 109 | 115 | 124 | 82.1 |
| AGUACGGUGCCGUUCAGAUCAACGUAUGAUACCAGCUCGUAUAUUAGCCCUUGGCAGCAUCCGAGUGAUGUUCGGAUUGUGCCAC [theeternabot_exclusion_KL_Theo_A_45] | 113 | 98 | 102 | 93.5 | 102 |
| AGUAGAGCAUCAGAUACCAGACAGAACUGAUGGUAAGGAGUGAUGUUCCUUAAUCAGCUUGUCCCUUGGCAGCUGAUAAUAGUCA [#13 K4 Theophylline B Same State] | 423 | 437 | 475 | 359 | 438 |
| AGUCCACUCUAAAGAGUGGACCUAAGGGAUACCAGUGAUGUUGGUCACCCUUGGCAGCCCUCUGUCAUCGAUAAAGAUGGCAGUA | 119 | 101 | 118 | 130 | 131 |

| Sequence | apparent KD of K4 kissing-loop reporter (input ligand: FMN 200 uM) [nM] | apparent KD of K4 kissing-loop reporter (input ligand: arginine 13.2 mM) [nM] | apparent KD of K4 kissing-loop reporter (input ligand: none) [nM] | apparent KD of K4 kissing-loop reporter [1] [nM] | apparent KD of K4 kissing-loop reporter [2] [nM] |
| --- | --- | --- | --- | --- | --- |
| AGUCUGUAUGACAUAAGUGAUGUUUAUGUUCGAGGACCGGUACGGCCGCCACUCGCAAAUGUAUGAUUUCACGUUUGUGCAAGUA [KL-XTryp-A #analogue] | 196 | 183 | 207 | 220 | 292 |
| AGUGACGUCGCGGCCGCCACUGAAAUGACAGUGAUGUUGUCAAAAGAAAGUGAUGUUAAGAAAUGCAGGACCGGGUGAUAGAAAA [semi-accidental] | 223 | 144 | 158 | 143 | 125 |
| AGUGAUGUAUGGCGGUGUGUCGCUUAAAAUCAGGAUAUAUAAACAAAUAGAAGGGAUGGCGGAGUGAUGUUCCGCCGGCCGCCAU [FMN A Exl V2] | 127 | 118 | 134 | 136 | 128 |
| AGUGAUGUGGGAAGGAGCGCUACAUCACUUCAGUGAUGUUGAAGUGAUGAAUUAGUGAUGUAGCAGGUAGGUCGCCUAGAUGUUA [KL-XARG-B12] | 76.3 | 38.5 | 58.3 | 60.8 | 51.3 |
| AGUGAUGUGGGAAGGAGCGCUAUAAGACUUCAGUGAUGUUGAAGUGCUGGUUUAGUGUUGUAGCAGGUAGGUCGCCUAGAUGUUA [KL-XARG-B11] | 293 | 239 | 275 | 196 | 218 |
| AGUGAUGUGGGAAGGAGCGGUAUAUGAGUUCAGUGAUGUUGAAGUGAUGCUGUAGUGAUGUGCCAGGUAGGUCGCCUAGAUGUUA [whbob_Ex_Arginine_B_2th165] | 374 | 217 | 395 | 194 | 290 |
| AGUGAUGUUGUGUUAUCUUAGUGAAGUGAUCGAGGACCGGUACGGCCGCCACUCGAGUGAUGAGUGAGUGAUGUUUGUUUAGGGA [vvbmullin] | 818 | 673 | 1080 | 931 | 561 |
| AGUGAUGUUGUGUUAUGCAAGGGAAGUGAUCGAGGACCGGUACGGCCGCCACUCGAGUGAUGAGUGAGUGAUGUUUGUUUAGGGA [ffgmullin] | 1180 | 451 | 933 | 883 | 401 |
| AGUGAUGUUGUGUUAUGUUUGGGAAGUGAUCGAGGACCGGUACGGCCGCCACUCGAGUGAUGAGUGAGUGAUGUUUGUUUAGGGA [whbob_SS_Tryp_A_m9] | 1060 | 698 | 962 | 1120 | 498 |
| AGUGGACGUGUUCGGAGUGAUGUUCCGGAUACCAGACACGAAAGUGUCCCUUGGCAGCCGGAGUGAUGUUCCGGCGUUCACUAAA [Omei KL Theo A Exc B v2] | 646 | 311 | 538 | 533 | 439 |
| AGUGUACAGUCGGCCGCCACUCACUCCUCCUGCGUUAACGAGUGAUGUUUGUUUUUUAGUGGUACGAGGACCGGGACUUCUCUGA [theeternabot_sameState_KL_Trp_B_35] | 237 | 118 | 275 | 245 | 260 |
| AGUUCAGAGUGACUCGAUAAGAGUCACAAACGAGGACCGGUACGGCCGCCACUCGAAAUAACGAGAGUGAUGUUCUCGCUGGGCA [FiskerMod 2 - Jieux - Same State Tryptophan A] | 726 | 674 | 862 | 824 | 244 |
| AGUUUAGAGUGACUCGAUAAGAGUCACAAACGAGGACCGGUACGGCCGCCACUCGAAAUAACGAGAGUGAUGUUCUCGCUGGGCA [FiskerMod 3 - Jieux - Same State Tryptophan A] | 332 | 377 | 458 | 384 | 126 |
| AUAAACUUGCAGUGAUGUUGCAAGUAAGACUAGGAUAUCAGGAAACUGAGAAGGAGUCAUCUCCUUCACUUGCAACUAGGAGGAG [[K1]-[K2]-[F1]-[F2]-[F]'-[K]'-[F]''_Design6] | 122 | 93.4 | 143 | 144 | 133 |
| AUAAUAAAGACGGCCGCCACUGAGAGUAGUGAUGUUACUCUUUUCCUUUAGAAAUAAUAUUUUAUCAGGACCGGGUUUUUUGAAU [JR_Nu_ExcTryptoB_Sub026] | 95.3 | 81.1 | 84.8 | 79.6 | 92 |
| AUAAUUAUAUAGAAAUAUAUAAUUAUAUAACGAGGACCGGUACGGCCGCCACUCGUGCCGGGCAUAAAAUGAGUGAUGUUCAUGU [KL-XTryp-A7 #analogue] | 205 | 228 | 212 | 193 | 198 |
| AUACGUUUCAGAGGAUAUCGGAGGAGAGUGAUGUUCUCCCAUAGCCCAGUGAUGUUGGAAGCUAUCCGAGAAGGCUGUGGGCGUA [Same State FMN B GF 15] | 145 | 174 | 186 | 179 | 179 |
| AUCGUUGUCUGAGGAUAUCGGUUAUCUGUAGUGAUGUUACAGUAUAUUCAUAUUAUACUUUCUAUUCGAGAAGGCAGACUACGUA [JR_Nu_ExcFMNB_Sub020] | 169 | 80.5 | 82.5 | 74.8 | 82.9 |
| AUCGUUGUCUGAGGAUAUCGUUUUACUGUAGUGAUGUUACAGAAAAUUCACAUUAUAAUUUCUAUUCGAGAAGGCAGACUACGUA [JR_ExcFMNB_Sub015] | 134 | 112 | 120 | 114 | 120 |
| AUCUAUGAGCGAGGAUAUGCAUAACGCGAGUGAUGUUCGCGAUGUGGGCGUAAUUGAUAAAAUGAAGCAGAAGGCGCACUCAUGA [Exclusion - FMW B / B] | 165 | 115 | 177 | 155 | 120 |
| AUGCCUAUGACGGCCGCCACUGAGAGUCAGUGAUGUUGACUCGAUACAGCUGAUUAGCAGCUAAUCAGGACCGGGUCAUACACAU [Tryp B SS t3] | 243 | 158 | 244 | 245 | 123 |
